Common to all, as to assay: SPR
On the technique in general: In SPR one partner is held on a chip, and binding of the other changes the refractive index at the surface.

Experiment [1] has as its target N-terminal human PrP fragment (PrP23–145) (human) (UniProt P04156).
For experiment [2], the target named is full-length PrP (PrP23–231) (mouse) (UniProt P04925).
For experiment [3], the target named is N-terminally truncated human PrP90–231 (human) (UniProt P04156).
Experiment [4] concerns the target N-terminally truncated PrP (PrP89–230) (mouse) (UniProt P04925).

The term Kd denotes the equilibrium constant for the complex coming apart.

With “Quiescin-sulfhydryl oxidase (from UniProt O00391 30-747) (enzyme)”, the Kd in experiment [1] was found to be 3.6 nM; in experiment [2], 2 nM; in experiment [3], 771 nM; in experiment [4] it was 312 nM.
